In publication PMC8324832:

Target: Right-Handed Coiled Coil-Nanotube (RHCC-NT) (Staphylothermus marinus)
Experiment: crystal structure; RHCC-NT incubated with o-carborane at 50 °C for 1 week, 10 mg/mL in 10 mM TRIS pH 7.5, 154 mM NaCl; vapour diffusion; data at 100 K; 2.2 Å; molecular replacement with PDB 1YBK

stoichiometry N: 4
Substance: Right-Handed Coiled Coil-Nanotube (RHCC-NT) (domain or fragment)
